The target in experiment [1] is hTSLPR-Ig fusion (human) (UniProt Q9HC73). As to the kind of experiment: SPR BIAcore T100, huTSLPR-hIg amine-coupled on CM5, antibody as analyte, bivalent analyte model, n = 2.
In a further experiment the target is hTSLPR-ECTO-His (human). As to the kind of experiment: ELISA, plate coated with TSLPR 50 ng/well, HRP goat anti-mouse detection. (ELISA stands for enzyme-linked immunosorbent assay.)
In experiment [2] the target is hTSLPR-Ig fusion (human) (UniProt Q9HC73). Description: SPR BIAcore T100, huTSLPR-hIg amine-coupled on CM5, antibody as analyte, bivalent analyte model, n = 6. Background: SPR reads the build-up and loss of mass on a sensor chip optically.

One may read the koff as the first-order rate constant of dissociation. Read a low koff as slow dissociation. As a reminder, the kon is the rate constant with which the complex forms. Read a low kon as slow association. Broadly, the EC50 is the concentration at which the effect is half-maximal.

hTSLPR-Ig fusion (human), sequence (Q9HC73 23-231): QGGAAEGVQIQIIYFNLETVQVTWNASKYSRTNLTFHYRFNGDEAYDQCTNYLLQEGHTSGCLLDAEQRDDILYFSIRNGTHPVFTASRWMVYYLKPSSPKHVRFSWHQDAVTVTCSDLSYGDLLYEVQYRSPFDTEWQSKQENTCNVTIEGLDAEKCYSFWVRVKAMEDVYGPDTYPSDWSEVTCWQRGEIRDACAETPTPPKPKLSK

B1: chimeric anti-human TSLPR 13H5 antibody (antibody, V domains shown, not shown: a dimerising Fc or GST)
VH: QVLLKQSGPSLVQPSQSLSITCTVSGFSLSRYGVHWVRQSPGKGLEWLGVIWRSGSTDYNAAFMSRLSITQDNSKSQVFFNMNSLQSDDSAIYYCAKKAFYVMDYWGQGTSVTVSS
VL: DIQMTQTTSSLSASLGDRVTISCRASQDISIYLNWYQQKPDGTVKLLIYYTSRLHSGVPSRFSGSGSGTNFSLTITNLEEEDIATYFCQQGNTLPWTFGGGTKLEIKR
Regarding B1, in the experiment with hTSLPR-Ig fusion (human) [1], the Kd worked out at 0.102 nM, the koff was 0.000136 s⁻¹ and the kon was found to be 1.34e+06 M⁻¹ s⁻¹.

B2: mouse anti human TSLPR antibody 13H5 (antibody, mouse IgG1, V domains shown)
VH: B1 VH
VL: B1 VL
B2 returned an EC50 with hTSLPR-ECTO-His (human) of 0.0106 µg/mL. In the experiment with hTSLPR-Ig fusion (human) [2], this molecule yielded a Kd of 0.037 nM, a koff of 7.8e-05 s⁻¹ and a kon of 2.12e+06 M⁻¹ s⁻¹.

B3: mouse anti-human TSLPR antibody 70E8 (antibody, mouse IgG1, V domains shown)
VH: DVQLQESGPDLVKPSQSLSLTCTVTNYSITSGYSWPWIRQFPGNKLEWLGYIHSSGRTNYNPSLKSRISITRDTSKNQFFLQLNSVTPEDTATYYCARSQLGLVFFAYWGQGTLVTVSA
VL: DIVMTQSQKFMSTSVGDRVSVTCKASQSVGANVAWYQQIPGHSPKVLIYSASYRFSGVPDRFTGSGSGTDFTLTISNVQSEDLAEYFCQQYNSYPYTFGGGTKLEIRR
Turning to B3, the EC50 with hTSLPR-ECTO-His (human) is 0.0162 µg/mL. In the experiment with hTSLPR-Ig fusion (human) [1], this molecule showed a Kd of 0.079 nM, a koff of 0.00012 s⁻¹ and a kon of 1.52e+06 M⁻¹ s⁻¹.

B4: rat anti-human TSLPR antibody 18B3 (antibody, V domains shown)
VH: EVQLVESGGGLVQPGRSLRLSCVASGFTFNNYWMTWVRQAPGKGLEWVASITDTSGRTYYPDSVKGRFTISRDHAKSTLYLQMNSLRPEDTATYYCTKTLGGIPRDWGQGVMVTVSS
VL: NIQLTQSPSLLSASVGDRVTLSCKGSQNINNYLAWYQQKLGEAPKLLIFKTNILQTGIPLRFSGSGSGTDYTLTISSLHCEDLATYYCYQFNNGFTFGPGTKLELKR
In the experiment with hTSLPR-Ig fusion (human) [1], B4 had a Kd of 0.008 nM, a koff of 1.5e-05 s⁻¹ and a kon of 1.81e+06 M⁻¹ s⁻¹.

Values taken from patent US20110020369A1.
